The data set concerns the molecule itself. In words: crystal structure; DNMT3C MTase domain-hDNMT3L C-terminal domain covalently bound to a 25-mer ZpG/CpG DNA, with SAH; 3.2 Å; crystals grown at 4 °C.

B1: mouse DNMT3C MTase domain (residues 456–740) (domain or fragment, UniProt P0DOY1 456-740, looked up)
chain: AAKRRPIRVLSLFDGIATGYLVLKELGIKVEKYIASEVCAESIAVGTVKHEGQIKYVDDIRNITKEHIDEWGPFDLVIGGSPCNDLSCVNPVRKGLFEGTGRLFFEFYRLLNYSCPEEEDDRPFFWMFENVVAMEVGDKRDISRFLECNPVMIDAIKVSAAHRARYFWGNLPGMNRPVMASKNDKLELQDCLEFSRTAKLKKVQTITTKSNSIRQGKNQLFPVVMNGKDDVLWCTELERIFGFPEHYTDVSNMGRGARQKLLGRSWSVPVIRHLFAPLKDHFACE
notes: DNA methyltransferase DNMT3C, mouse, MTase domain, residues 456-740; synthetic DNA fragment; The His6-SUMO tag was still on the chain in the Ni-NTA co-purification step and was removed by ULP1 afterwards; also called DNMT3C methyltransferase domain; WT DNMT3C; source: E. coli BL21 (DE3) RIL, co-expressed with DNMT3L, purified (Ni-NTA, Heparin, SEC); not shown: His6-SUMO, N-terminal, cleaved
Consider B1, for which the binding result was “binds”.

(Values after PMC11401227, “The structure of DNA methyltransferase DNMT3C reveals an activity-tuning mechanism for DNA methylation” (The Journal of Biological Chemistry, 2024).)
